Experimental data from patent US20230312723A1, “METHODS AND COMPOSITIONS FOR NON-SMALL CELL LUNG CANCER IMMUNOTHERAPY” (Genentech, Inc., priority 2020, published 2023).

System: patients with Stage IV NSCLC
Assay: Phase III study: safety, adverse events graded according to NCI CTCAE v4.0
[1] = All treated patients, Chemo N = 263, Atezo N = 286
[2] = All treated patients, Chemo N = 263, Atezo N = 286, listed as atezolizumab

In the case of atezolizumab, the “AE leading to any treatment withdrawal, % of patients” value [1] is reported as “(6.3%)”, the “AE leading to any treatment withdrawal, number of patients” value [1] is reported as 18 and the “All Deaths, % of patients” value [1] is reported as 43.7%. For the same substance, the “All Deaths, number of patients” value [1] was 125, the “All Grade AE, any cause, % of patients” value [1] was “(90.2%)” and the “All Grade AE, any cause, number of patients” value [1] was 258. For the same substance, the “Cause of death: Adverse Event, % of patients” value [1] was 3.8%, the “Cause of death: Adverse Event, number of patients” value [1] was 11 and the “Cause of death: Other, including deaths collected by public records, % of patients” value [1] was 3.8%. The “Cause of death: Other, including deaths collected by public records, number of patients” value [1] was 11, the “Cause of death: Progressive disease, % of patients” value [1] was 36.0% and the “Cause of death: Progressive disease, number of patients” value [1] was 103. For the same substance, the “Grade 3-4 AE, % of patients” value [1] was “(31.8%)”, the “Grade 3-4 AE, number of patients” value [1] was 91 and the “Grade 5 AE, % of patients” value [1] was “(3.8%)”. The “Grade 5 AE, number of patients” value [1] was 11, the “Related AE (TRAE), % of patients” value [1] was “(60.5%)” and the “Related AE, number of patients” value [1] was 173. For the same substance, the “Serious Adverse Event, % of patients” value [1] was “(28.3%)”, the “Serious Adverse Event, number of patients” value [1] was 81 and the “Treatment-Related SAE, % of patients” value [1] was “(8.4%)”. The “Treatment-Related SAE, number of patients” value [1] was 24, the “Treatment-related Grade 3-4 AE, % of patients” value [1] was “(12.9%)” and the “Treatment-related Grade 3-4 AE, number of patients” value [1] was 37. The “Treatment-related Grade 5 AE, number of patients” value [1] was 0, the “Related AE (TRAE), % of patients” value [2] was 60.5% and the “Treatment-related Grade 3-4 AE, % of patients” value [2] was 12.9%. For the same substance, the “Treatment-related AE Anemia, All Grades, %” value (Atezo n = 286, Chemo n = 263) was “(3.5) %”, the “Treatment-related AE Asthenia, All Grades, %” value (Atezo n = 286, Chemo n = 263) was “(7.3) %” and the “Treatment-related AE Asthenia, Grade 3-4, %” value (Atezo n = 286, Chemo n = 263) was 0.3%. For the same substance, the “Treatment-related AE Constipation, All Grades, %” value (Atezo n = 286, Chemo n = 263) was “(3.5) %”, the “Treatment-related AE Constipation, Grade 3-4, %” value (Atezo n = 286, Chemo n = 263) was 0.3% and the “Treatment-related AE Decreased appetite, All Grades, %” value (Atezo n = 286, Chemo n = 263) was “(7.0) %”. For the same substance, the “Treatment-related AE Decreased appetite, Grade 3-4, %” value (Atezo n = 286, Chemo n = 263) was 0.7%, the “Treatment-related AE Decreased white blood cell count, All Grades, %” value (Atezo n = 286, Chemo n = 263) was “(1.0) %” and the “Treatment-related AE Fatigue, All Grades, %” value (Atezo n = 286, Chemo n = 263) was “(7.7) %”. The “Treatment-related AE Fatigue, Grade 3-4, %” value (Atezo n = 286, Chemo n = 263) was 0.7%, the “Treatment-related AE Hyperkalemia, All Grades, %” value (Atezo n = 286, Chemo n = 263) was “(2.1) %” and the “Treatment-related AE Hyperkalemia, Grade 3-4, %” value (Atezo n = 286, Chemo n = 263) was 1.0%. For the same substance, the “Treatment-related AE Hyponatremia, All Grades, %” value (Atezo n = 286, Chemo n = 263) was “(1.7) %”, the “Treatment-related AE Hyponatremia, Grade 3-4, %” value (Atezo n = 286, Chemo n = 263) was 1.0% and the “Treatment-related AE Leukopenia, All Grades, %” value (Atezo n = 286, Chemo n = 263) was “(1.0) %”. The “Treatment-related AE Leukopenia, Grade 3-4, %” value (Atezo n = 286, Chemo n = 263) was 0.3%, the “Treatment-related AE Nausea, All Grades, %” value (Atezo n = 286, Chemo n = 263) was “(7.0) %” and the “Treatment-related AE Nausea, Grade 3-4, %” value (Atezo n = 286, Chemo n = 263) was 0.3%. The “Treatment-related AE Neutropenia, All Grades, %” value (Atezo n = 286, Chemo n = 263) was “(1.0) %”, the “Treatment-related AE Neutropenia, Grade 3-4, %” value (Atezo n = 286, Chemo n = 263) was 0.7% and the “Treatment-related AE Pancytopenia, All Grades, %” value (Atezo n = 286, Chemo n = 263) was “(0.3) %”. For the same substance, the “Treatment-related AE Pancytopenia, Grade 3-4, %” value (Atezo n = 286, Chemo n = 263) was 0.3%, the “Treatment-related AE Thrombocytopenia, All Grades, %” value (Atezo n = 286, Chemo n = 263) was “(1.7) %” and the “Treatment-related AE Thrombocytopenia, Grade 3-4, %” value (Atezo n = 286, Chemo n = 263) was 0.3%. For the same substance, the “Treatment-related AE Vomiting, All Grades, %” value (Atezo n = 286, Chemo n = 263) was “(1.4) %”, the “Treatment-related AE Vomiting, Grade 3-4, %” value (Atezo n = 286, Chemo n = 263) was 0.3% and the “Grade 5 AE: Acute myocardial infarction, %” value (Chemo N = 263, Atezo N = 286) was 0.3%. For the same substance, the “Grade 5 AE: Aspiration, %” value (Chemo N = 263, Atezo N = 286) was 0.3%, the “Grade 5 AE: COPD, %” value (Chemo N = 263, Atezo N = 286) was 0.3% and the “Grade 5 AE: Cardiac arrest, %” value (Chemo N = 263, Atezo N = 286) was 0.3%. For the same substance, the “Grade 5 AE: Cardiac disorders, %” value (Chemo N = 263, Atezo N = 286) was 0.7%, the “Grade 5 AE: Cerebral infarction, %” value (Chemo N = 263, Atezo N = 286) was 0.3% and the “Grade 5 AE: Death, %” value (Chemo N = 263, Atezo N = 286) was 0.7%. For the same substance, the “Grade 5 AE: Gastrointestinal disorders, %” value (Chemo N = 263, Atezo N = 286) was 0.3%, the “Grade 5 AE: General disorders and administration site conditions, %” value (Chemo N = 263, Atezo N = 286) was 0.7% and the “Grade 5 AE: Infections and infestations, %” value (Chemo N = 263, Atezo N = 286) was 0.3%. For the same substance, the “Grade 5 AE: Mechanical ileus, %” value (Chemo N = 263, Atezo N = 286) was 0.3%, the “Grade 5 AE: Nervous system disorders, %” value (Chemo N = 263, Atezo N = 286) was 0.3% and the “Grade 5 AE: Product issues, Device occlusion, %” value (Chemo N = 263, Atezo N = 286) was 0.3%. For the same substance, the “Grade 5 AE: Pulmonary embolism, %” value (Chemo N = 263, Atezo N = 286) was 0.3%, the “Grade 5 AE: Respiratory, thoracic and mediastinal disorders, %” value (Chemo N = 263, Atezo N = 286) was 1.0% and the “Grade 5 AE: Sepsis, %” value (Chemo N = 263, Atezo N = 286) was 0.3%. The “Grade 5 AE: Total number of patients” value (Chemo N = 263, Atezo N = 286) was 11.
